# B1: SL335 (Fab, V domains shown)
# VH: QVQLVQSGGGPVKPGGSLRLSCAASGFMFRAYSMNWVRQAPGKGLEWVSSISSSGRYIHYADSVKGRFTISRDNAKNSLYLQMNSLRAEDTAVYYCARETVMAGKALDYWGQGTLVTVSS
# VL: ELVLTQSPGTLSLSPGETATLSCRASQSVGSNLAWYQQKPGQAPRLLIYGASTGATGVPARFSGSRSGTDFTLTITSLQPEDFATYYCQQYYSFLAKTFGQGTQLEIKR
# notes: Human anti-serum albumin Fab in the classic form (VH+CH1 with Cys233, VL+CLk with Cys214); tested on phage and as soluble Fab purified from E. coli; also called SL335wt; SL335 Fab
# How the values were obtained:
# human serum albumin [1] = target: T1, human serum albumin (human, UniProt P02768 25-609); assay: ELISA, purified soluble Fab, pH 6
# T1 construct: Bought protein; also called HSA; human SA
# Method: (§1) For the monoclonal phage ELISA, the recombinant phage was obtained from positive E. coli clones by phage rescue, and ˜10⁸ CFU/well were added to MaxiSorb ELISA plates (Nunc, Roskilde, Denmark) that were coated with 5 μg/ml HSA, RSA, MSA or BSA. The phage was allowed to bind to the antigens either at pH 6 or at pH 7.4 for 1 h at 37° C. A goat anti-human kappa L Ab-conjugated with HRPO (Sigma-Aldrich) was used as a secondary antibody. The binding signals were visualized with a TMB substrate (BD Science, San Jose, Calif., USA), and the absorbance at 450 nm was measured using an ELISA reader (Bio-Rad, Hercules, Calif., USA). The data represent the average of three experiments standard deviation. For the conventional ELISA, the various antigens [human SA, rat SA, mouse SA, monkey SA (Alpha diagnositic Intl., San Antonio, Tex., USA), canine SA (CUSABIO, Wuhan, Hubei, China). rabbit SA (Sigma-Aldrich), epidermal growth factor receptor (EGFR) (R&D systems, Minneapolis, Minn., USA), epithelial cell adhesion molecule (EpCAM) (R&D systems), IL-15 receptor a (IL-15Ra) (R&D systems), IL-10 (eBioscience, San Diego, Calif., USA), CD16a (R&D systems), c-MET (Sinobiological, Beijing, China)] at 5 μg/ml concentrations were immobilized on the microtiter plates, and the Fab molecules were allowed to bind to the antigens, and detected as above. […]
# human serum albumin [2] = target: T1, human serum albumin; assay: ELISA, purified soluble Fab, pH 7.4
# Method: as §1
# human serum albumin [3] = target: T1, human serum albumin; assay: ELISA, purified soluble Fab on coated HSA
# [4] = target: T2, cynomolgus monkey serum albumin (cynomolgus monkey, UniProt A2V9Z4 25-608); assay: ELISA, soluble Fab, antigen coated at 5 µg/ml
# T2 construct: also called cynomolgus monkey SA; monkey SA
# rabbit serum albumin = target: T3, rabbit serum albumin (rabbit, UniProt P49065 25-608); assay: ELISA, soluble Fab, antigen coated at 5 µg/ml
# T3 construct: also called rabbit SA
# [5] = target: T4, epidermal growth factor receptor (UniProt P00533 25-645); assay: ELISA, soluble Fab, antigen coated at 5 µg/ml
# T4 construct: also called EGFR
# [6] = target: T5, epithelial cell adhesion molecule (UniProt P16422 24-265); assay: ELISA, soluble Fab, antigen coated at 5 µg/ml
# T5 construct: also called EpCAM
# T5 sequence (looked up): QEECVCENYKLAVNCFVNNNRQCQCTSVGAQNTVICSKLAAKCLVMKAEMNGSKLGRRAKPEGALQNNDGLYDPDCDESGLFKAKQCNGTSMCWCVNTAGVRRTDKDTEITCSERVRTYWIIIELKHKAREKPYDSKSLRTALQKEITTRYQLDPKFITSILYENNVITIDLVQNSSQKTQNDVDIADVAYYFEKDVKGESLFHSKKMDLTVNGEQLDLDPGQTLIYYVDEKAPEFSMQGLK
# IL-15 receptor a = target: T6, IL-15 receptor a (UniProt Q13261 31-205); assay: ELISA, soluble Fab, antigen coated at 5 µg/ml
# T6 construct: also called IL-15Ra
# c-MET = c-MET (UniProt P08581 25-932, limits assumed); assay: ELISA, soluble Fab, antigen coated at 5 µg/ml
# rat serum albumin = target: T7, rat serum albumin (rat, UniProt P02770 25-608); assay: ELISA, purified soluble Fab on coated RSA, pH 6; rat SA, pH 6
# T7 construct: Bought protein; also called RSA; rat SA
# Method: as §1
# bovine serum albumin = target: T8, bovine serum albumin (bovine, UniProt P02769 25-607); assay: monoclonal phage ELISA at pH 6, antigen coated at 5 ug/ml, anti-human kappa-HRPO, A450
# T8 construct: also called BSA; bovine SA
# Method: For the monoclonal phage ELISA, the recombinant phage was obtained from positive E. coli clones by phage rescue, and ˜10⁸ CFU/well were added to MaxiSorb ELISA plates (Nunc, Roskilde, Denmark) that were coated with 5 μg/ml HSA, RSA, MSA or BSA. The phage was allowed to bind to the antigens either at pH 6 or at pH 7.4 for 1 h at 37° C. A goat anti-human kappa L Ab-conjugated with HRPO (Sigma-Aldrich) was used as a secondary antibody. The binding signals were visualized with a TMB substrate (BD Science, San Jose, Calif., USA), and the absorbance at 450 nm was measured using an ELISA reader (Bio-Rad, Hercules, Calif., USA). The data represent the average of three experiments standard deviation. For the conventional ELISA, the various antigens [human SA, rat SA, mouse SA, monkey SA (Alpha diagnositic Intl., San Antonio, Tex., USA), canine SA (CUSABIO, Wuhan, Hubei, China). rabbit SA (Sigma-Aldrich), epidermal growth factor receptor (EGFR) (R&D systems, Minneapolis, Minn., USA), epithelial cell adhesion molecule (EpCAM) (R&D systems), IL-15 receptor a (IL-15Ra) (R&D systems), IL-10 (eBioscience, San Diego, Calif., USA), CD16a (R&D systems), c-MET (Sinobiological, Beijing, China)] at 5 μg/ml concentrations were immobilized on the microtiter plates, and the Fab molecules were allowed to bind to the antigens, and detected as above. To determine the concentration of soluble Fab or Fab-hGH fusion proteins, a sandwich ELISA was performed using a mouse anti-human IgG Fd mAb (AprilBio) as a capturing Ab and the goat anti-human kappa L chain pAb-HRPO conjugated (Sigma-Aldrich) as a detecting antibody. The human Fab fragment (Bethyl, Montgomery, Tex., USA) with a known concentration was used to draw the standard curve. For detecting the hGH domain, T-20, a goat pAb specific for the C-terminus of the hGH (Santacruz Biotechnology, Dallas, Tex., USA) and NYThGH, a mouse mAb specific for full-length hGH (Prospec, East Brunswick, N.J., USA) were used followed by a rabbit anti-goat IgG pAb-HRPO conjugated (Sigma-Aldrich) or a goat anti-mouse IgG pAb-HRPO conjugated (Sigma-Aldrich), respectively as a secondary antibody. A goat anti-human GCSF pAb (R&D Systems) was used to detecting the G-CSF domain, and a rabbit anti-human IFN-β pAb (PEPROTECH, Rocky Hill, USA) was used to detect the IFN-β domain.
# mouse serum albumin = target: T9, mouse serum albumin (mouse, UniProt P07724 25-608); assay: biolayer interferometry (Octet RED), SL335 on AR2G biosensor, MSA in solution, pH 7.4; the filing calls the data unreliable; pH 7.4; left out of Table 6 for lack of reliability
# T9 construct: Bought protein; also called MSA; mouse SA
# Method: Real-time binding assays between the purified SL335 and the antigens (human SA, rat SA or mouse SA) were performed using biolayer interferometry with an Octet RED system (ForteBio, Menlo park, Calif., USA) as previously described except that AR2G (Amine Reactive Second-Generation) sensors were used (Costin et al., (2013) J Virol. 87, 52-66). Briefly, the predetermined concentration of SL335 was coupled to kinetics grade AR2G biosensors, and unbound Fab fragments were removed from the surfaces of the sensors by incubating in the kinetics buffer […]. […] The binding and dissociation kinetics were calculated using the Octet QK software package, which fit the observed binding curves to a 1:1 binding model to calculate the association rate constants. The association and dissociation rate constants were calculated using at least three different concentrations of human SA, rat SA or mouse SA. The equilibrium dissociation constants were calculated as the kinetic dissociation rate constant divided by the kinetic association rate constant.
# Since SL335 was the best binder among four anti-human SA Fab clones, its cross-reactivity was further analyzed by ELISA. […]
# T9 sequence (P07724 25-608 limits assumed): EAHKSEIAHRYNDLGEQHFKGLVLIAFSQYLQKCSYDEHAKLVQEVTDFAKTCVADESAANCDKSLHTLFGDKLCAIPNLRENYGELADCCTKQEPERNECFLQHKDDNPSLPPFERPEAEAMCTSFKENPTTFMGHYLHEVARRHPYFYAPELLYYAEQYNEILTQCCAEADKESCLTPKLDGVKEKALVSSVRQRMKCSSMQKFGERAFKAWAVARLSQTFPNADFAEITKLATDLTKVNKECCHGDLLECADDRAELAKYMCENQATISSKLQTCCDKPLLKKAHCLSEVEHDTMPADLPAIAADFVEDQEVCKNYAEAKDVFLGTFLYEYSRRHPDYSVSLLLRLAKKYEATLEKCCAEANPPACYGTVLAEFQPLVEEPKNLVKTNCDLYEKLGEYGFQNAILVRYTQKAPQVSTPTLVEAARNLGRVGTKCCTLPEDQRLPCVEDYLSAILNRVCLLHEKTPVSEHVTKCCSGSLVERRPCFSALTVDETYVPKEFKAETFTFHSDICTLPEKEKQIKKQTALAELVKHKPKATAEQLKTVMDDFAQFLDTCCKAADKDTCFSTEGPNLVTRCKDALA
# T3 sequence (P49065 25-608 limits assumed): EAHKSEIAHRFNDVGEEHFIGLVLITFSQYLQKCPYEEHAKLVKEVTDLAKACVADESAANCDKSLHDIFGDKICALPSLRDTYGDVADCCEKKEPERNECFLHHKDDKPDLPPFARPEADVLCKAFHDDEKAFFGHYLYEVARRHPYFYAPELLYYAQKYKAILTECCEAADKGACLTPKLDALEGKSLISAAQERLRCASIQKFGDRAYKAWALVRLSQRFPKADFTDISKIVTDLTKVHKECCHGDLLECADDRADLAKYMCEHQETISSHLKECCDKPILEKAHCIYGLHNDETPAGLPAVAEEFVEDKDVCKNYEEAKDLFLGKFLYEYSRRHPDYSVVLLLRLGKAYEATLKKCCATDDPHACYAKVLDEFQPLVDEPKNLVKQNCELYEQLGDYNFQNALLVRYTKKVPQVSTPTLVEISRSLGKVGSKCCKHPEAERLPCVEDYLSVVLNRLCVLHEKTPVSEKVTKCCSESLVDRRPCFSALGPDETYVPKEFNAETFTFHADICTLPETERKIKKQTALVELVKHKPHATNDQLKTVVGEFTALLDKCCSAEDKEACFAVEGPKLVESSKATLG
# T6 sequence (Q13261 31-205 limits assumed): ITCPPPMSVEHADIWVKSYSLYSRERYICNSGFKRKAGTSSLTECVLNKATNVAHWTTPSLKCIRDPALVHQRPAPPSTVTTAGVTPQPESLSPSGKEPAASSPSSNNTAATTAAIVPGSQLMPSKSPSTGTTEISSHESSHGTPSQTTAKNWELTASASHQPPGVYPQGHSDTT
# T7 sequence (P02770 25-608 limits assumed): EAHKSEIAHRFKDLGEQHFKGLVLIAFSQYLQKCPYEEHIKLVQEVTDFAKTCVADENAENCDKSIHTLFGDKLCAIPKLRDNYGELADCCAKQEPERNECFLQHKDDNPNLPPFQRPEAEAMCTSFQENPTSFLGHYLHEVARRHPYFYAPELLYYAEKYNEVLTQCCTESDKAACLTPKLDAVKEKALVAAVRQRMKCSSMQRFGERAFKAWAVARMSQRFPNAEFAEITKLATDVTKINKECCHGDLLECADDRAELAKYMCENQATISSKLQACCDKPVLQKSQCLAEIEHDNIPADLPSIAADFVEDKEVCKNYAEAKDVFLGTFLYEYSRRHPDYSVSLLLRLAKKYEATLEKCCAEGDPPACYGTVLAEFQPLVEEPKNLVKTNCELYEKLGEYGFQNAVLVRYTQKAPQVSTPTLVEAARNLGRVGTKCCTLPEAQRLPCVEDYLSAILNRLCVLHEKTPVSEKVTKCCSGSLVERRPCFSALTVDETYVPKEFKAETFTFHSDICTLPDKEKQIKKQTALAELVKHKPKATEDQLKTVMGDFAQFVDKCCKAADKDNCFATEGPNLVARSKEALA
# T2 sequence (A2V9Z4 25-608 limits assumed): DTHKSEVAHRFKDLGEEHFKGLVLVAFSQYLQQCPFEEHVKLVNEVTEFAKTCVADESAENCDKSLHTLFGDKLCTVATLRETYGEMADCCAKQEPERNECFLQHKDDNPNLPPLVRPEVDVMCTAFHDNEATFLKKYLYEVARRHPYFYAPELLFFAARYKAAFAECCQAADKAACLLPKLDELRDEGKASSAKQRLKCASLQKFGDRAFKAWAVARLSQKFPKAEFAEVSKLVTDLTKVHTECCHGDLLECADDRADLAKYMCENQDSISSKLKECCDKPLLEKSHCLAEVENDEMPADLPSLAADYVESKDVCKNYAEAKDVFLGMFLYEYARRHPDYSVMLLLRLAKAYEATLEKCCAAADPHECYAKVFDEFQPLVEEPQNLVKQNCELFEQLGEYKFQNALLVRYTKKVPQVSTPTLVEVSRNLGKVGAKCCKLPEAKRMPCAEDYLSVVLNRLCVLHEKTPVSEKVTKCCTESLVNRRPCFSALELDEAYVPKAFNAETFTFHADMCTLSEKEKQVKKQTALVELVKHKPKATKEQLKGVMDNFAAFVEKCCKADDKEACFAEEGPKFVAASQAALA
# Sequence of c-MET (P08581 25-932 limits assumed): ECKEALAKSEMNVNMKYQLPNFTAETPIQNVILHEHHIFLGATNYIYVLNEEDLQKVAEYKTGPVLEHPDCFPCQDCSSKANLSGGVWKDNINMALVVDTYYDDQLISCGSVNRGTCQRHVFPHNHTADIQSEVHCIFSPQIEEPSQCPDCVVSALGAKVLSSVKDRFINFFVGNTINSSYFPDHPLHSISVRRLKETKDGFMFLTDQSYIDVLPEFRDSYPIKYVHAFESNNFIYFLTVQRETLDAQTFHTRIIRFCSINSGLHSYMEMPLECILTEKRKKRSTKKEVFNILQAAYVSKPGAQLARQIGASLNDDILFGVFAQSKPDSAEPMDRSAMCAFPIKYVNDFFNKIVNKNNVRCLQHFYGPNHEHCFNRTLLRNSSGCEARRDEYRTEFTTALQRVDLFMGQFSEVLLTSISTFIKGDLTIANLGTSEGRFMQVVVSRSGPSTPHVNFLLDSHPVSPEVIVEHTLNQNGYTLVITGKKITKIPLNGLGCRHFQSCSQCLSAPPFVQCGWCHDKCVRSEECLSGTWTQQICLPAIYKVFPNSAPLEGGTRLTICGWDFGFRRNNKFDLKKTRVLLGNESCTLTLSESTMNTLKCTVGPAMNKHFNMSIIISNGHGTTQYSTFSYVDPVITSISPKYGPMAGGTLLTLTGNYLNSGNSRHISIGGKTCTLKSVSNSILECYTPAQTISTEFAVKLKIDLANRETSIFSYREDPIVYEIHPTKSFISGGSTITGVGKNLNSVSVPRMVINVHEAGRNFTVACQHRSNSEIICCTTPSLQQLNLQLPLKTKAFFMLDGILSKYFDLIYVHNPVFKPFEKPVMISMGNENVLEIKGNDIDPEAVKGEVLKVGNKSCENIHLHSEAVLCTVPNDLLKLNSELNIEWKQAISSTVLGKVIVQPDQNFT
# T8 sequence (P02769 25-607 limits assumed): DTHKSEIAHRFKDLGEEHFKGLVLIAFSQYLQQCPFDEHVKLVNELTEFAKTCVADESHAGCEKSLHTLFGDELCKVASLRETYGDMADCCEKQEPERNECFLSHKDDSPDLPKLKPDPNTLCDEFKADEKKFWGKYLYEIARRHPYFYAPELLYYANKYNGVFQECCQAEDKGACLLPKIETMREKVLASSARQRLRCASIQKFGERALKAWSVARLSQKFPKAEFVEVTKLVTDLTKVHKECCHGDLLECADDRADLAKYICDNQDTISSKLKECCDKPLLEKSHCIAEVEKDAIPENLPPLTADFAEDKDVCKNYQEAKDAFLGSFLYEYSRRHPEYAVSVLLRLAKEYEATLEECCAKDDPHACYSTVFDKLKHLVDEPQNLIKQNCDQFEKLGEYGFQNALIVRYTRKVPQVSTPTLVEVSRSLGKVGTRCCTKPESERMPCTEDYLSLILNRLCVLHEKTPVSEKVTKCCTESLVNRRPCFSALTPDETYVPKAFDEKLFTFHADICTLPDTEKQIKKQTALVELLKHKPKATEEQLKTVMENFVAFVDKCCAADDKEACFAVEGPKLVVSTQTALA
binder,measurement,setting,value
B1,fold stronger binding than to rat SA at pH 6,human serum albumin [1],20 fold
same,fold stronger binding than to rat SA at pH 7.4,human serum albumin [2],4 fold
same,fold stronger binding at pH 6 than at pH 7.4,human serum albumin [3],2 fold
same,binding result,[4],binds
same,binding result,rabbit serum albumin,no binding
same,binding result,[5],no binding
same,binding result,[6],no binding
same,binding result,IL-15 receptor a,no binding
same,binding result,c-MET,no binding
same,EC50,rat serum albumin,0.4 µg/mL
same,binding result,bovine serum albumin,no binding
same,Kd,mouse serum albumin,~1600 nM

# Source: patent US20180030127A1 (APRILBIO, published 2018)
